Publication PMC10491584, “Structural convergence endows nuclear transport receptor Kap114p with a transcriptional repressor function toward TATA-binding protein” (Nature Communications, 2023)

T1: Kap114p wild type (S. cerevisiae, UniProt P53067 1-1004)
T1 construct: Kap114p (karyopherin-β), S. cerevisiae, full length, amplified from total genomic DNA; GST tag followed by a PreScission site (modified pGEX6p1); PreScission protease added during dialysis; also called Kap114p WT; GST-Kap114p (plasmid pGEX-6P-1-Kap114); source: E. coli Rosetta, purified (GST resin, MonoQ, Superdex 200)
T1 sequence (looked up): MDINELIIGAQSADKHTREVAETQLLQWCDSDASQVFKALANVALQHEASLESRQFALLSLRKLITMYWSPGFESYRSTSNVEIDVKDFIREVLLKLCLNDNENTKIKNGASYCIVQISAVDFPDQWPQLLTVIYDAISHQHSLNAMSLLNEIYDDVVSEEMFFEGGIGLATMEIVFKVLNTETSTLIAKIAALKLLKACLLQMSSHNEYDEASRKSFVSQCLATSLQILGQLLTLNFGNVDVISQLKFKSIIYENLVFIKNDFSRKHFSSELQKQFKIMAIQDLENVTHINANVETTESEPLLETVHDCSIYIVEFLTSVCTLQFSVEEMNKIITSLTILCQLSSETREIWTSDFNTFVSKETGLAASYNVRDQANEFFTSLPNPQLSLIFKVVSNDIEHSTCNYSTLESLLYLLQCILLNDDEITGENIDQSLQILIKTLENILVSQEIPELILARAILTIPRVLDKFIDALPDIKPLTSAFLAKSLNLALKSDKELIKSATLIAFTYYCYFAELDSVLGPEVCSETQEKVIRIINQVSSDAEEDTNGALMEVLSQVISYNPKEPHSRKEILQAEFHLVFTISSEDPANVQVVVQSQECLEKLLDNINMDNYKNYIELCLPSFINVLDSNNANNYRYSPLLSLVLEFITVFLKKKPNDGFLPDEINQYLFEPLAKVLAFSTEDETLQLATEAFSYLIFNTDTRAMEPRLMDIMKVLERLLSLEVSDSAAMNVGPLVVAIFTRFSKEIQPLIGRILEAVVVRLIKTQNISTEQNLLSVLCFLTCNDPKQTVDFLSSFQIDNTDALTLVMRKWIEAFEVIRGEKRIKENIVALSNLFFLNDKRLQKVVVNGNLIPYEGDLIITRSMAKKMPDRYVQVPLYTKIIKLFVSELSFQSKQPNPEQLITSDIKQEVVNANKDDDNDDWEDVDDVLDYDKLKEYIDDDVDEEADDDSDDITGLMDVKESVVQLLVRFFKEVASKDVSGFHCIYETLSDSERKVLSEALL

T2: Kap114p (Q597A) (S. cerevisiae, UniProt P53067 1-1004, Q597A)
T2 construct: Kap114p, S. cerevisiae, full length with Q597A; also called GST-Kap114p (Q597); source: E. coli Rosetta, purified (GST resin, MonoQ, Superdex 200)
T2 sequence (looked up): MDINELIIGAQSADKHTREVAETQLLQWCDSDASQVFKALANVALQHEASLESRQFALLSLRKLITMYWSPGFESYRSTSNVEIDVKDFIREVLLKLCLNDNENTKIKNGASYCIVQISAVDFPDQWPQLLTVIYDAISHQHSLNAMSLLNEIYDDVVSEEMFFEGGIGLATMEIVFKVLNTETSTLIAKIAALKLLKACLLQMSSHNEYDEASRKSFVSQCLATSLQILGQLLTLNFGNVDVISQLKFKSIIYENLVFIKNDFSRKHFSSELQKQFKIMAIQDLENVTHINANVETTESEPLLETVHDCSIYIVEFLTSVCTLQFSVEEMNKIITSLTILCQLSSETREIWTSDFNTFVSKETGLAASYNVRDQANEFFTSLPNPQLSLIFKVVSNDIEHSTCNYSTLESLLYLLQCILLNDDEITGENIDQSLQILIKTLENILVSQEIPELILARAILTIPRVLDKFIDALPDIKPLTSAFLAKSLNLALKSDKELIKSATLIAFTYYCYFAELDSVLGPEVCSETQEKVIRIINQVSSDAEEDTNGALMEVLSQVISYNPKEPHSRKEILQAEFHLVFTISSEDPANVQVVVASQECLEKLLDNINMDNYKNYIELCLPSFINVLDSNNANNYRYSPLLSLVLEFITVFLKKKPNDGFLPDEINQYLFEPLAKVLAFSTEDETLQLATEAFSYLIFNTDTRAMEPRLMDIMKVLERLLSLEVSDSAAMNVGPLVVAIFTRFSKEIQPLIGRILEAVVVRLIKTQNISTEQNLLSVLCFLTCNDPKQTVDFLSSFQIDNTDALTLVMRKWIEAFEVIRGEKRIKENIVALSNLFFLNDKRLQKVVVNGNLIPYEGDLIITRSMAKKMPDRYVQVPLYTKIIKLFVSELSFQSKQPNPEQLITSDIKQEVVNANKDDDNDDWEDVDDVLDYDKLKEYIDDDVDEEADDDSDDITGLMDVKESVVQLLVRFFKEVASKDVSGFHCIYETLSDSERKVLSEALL

T3: Kap95p (S. cerevisiae, UniProt Q06142 1-861)
T3 construct: Kap95p, S. cerevisiae, full length; The purification paragraph is headed for Kap114p proteins; that Kap95p was treated alike is surmised; source: E. coli, GST-tagged construct in modified pGEX6p1; purification told for the GST-tagged proteins; not shown: GST, N-terminal, cleaved
T3 sequence (looked up): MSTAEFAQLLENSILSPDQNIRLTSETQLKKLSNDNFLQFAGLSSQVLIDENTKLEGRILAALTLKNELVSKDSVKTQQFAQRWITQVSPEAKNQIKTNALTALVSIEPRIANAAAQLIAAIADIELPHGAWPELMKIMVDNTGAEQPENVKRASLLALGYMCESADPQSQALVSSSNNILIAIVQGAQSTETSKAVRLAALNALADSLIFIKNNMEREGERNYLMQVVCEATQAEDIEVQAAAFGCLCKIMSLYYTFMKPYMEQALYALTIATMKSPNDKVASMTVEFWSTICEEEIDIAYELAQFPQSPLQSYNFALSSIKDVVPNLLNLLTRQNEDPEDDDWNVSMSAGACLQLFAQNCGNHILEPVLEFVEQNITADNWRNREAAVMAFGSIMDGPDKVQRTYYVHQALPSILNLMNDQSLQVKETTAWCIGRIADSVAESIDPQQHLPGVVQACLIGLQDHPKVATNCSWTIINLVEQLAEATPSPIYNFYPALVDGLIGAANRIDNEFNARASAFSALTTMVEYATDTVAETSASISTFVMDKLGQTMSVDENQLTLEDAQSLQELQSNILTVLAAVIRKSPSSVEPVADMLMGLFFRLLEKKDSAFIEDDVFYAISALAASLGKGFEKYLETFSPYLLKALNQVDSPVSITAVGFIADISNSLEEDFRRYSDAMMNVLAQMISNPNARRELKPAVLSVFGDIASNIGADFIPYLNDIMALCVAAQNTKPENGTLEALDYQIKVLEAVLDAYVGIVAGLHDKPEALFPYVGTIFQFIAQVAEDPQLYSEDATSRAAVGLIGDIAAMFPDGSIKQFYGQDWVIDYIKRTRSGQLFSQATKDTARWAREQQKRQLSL

T4: Kap114p (wild type) (S. cerevisiae, UniProt P53067 1-1004)
T4 construct: Kap114p, S. cerevisiae, full length, amplified from total genomic DNA; GST tag removed with PreScission protease; also called karyopherin-β Kap114p; source: E. coli Rosetta, purified (GST resin, MonoQ, Superdex 200); not shown: GST, N-terminal, cleaved
T4 sequence (looked up): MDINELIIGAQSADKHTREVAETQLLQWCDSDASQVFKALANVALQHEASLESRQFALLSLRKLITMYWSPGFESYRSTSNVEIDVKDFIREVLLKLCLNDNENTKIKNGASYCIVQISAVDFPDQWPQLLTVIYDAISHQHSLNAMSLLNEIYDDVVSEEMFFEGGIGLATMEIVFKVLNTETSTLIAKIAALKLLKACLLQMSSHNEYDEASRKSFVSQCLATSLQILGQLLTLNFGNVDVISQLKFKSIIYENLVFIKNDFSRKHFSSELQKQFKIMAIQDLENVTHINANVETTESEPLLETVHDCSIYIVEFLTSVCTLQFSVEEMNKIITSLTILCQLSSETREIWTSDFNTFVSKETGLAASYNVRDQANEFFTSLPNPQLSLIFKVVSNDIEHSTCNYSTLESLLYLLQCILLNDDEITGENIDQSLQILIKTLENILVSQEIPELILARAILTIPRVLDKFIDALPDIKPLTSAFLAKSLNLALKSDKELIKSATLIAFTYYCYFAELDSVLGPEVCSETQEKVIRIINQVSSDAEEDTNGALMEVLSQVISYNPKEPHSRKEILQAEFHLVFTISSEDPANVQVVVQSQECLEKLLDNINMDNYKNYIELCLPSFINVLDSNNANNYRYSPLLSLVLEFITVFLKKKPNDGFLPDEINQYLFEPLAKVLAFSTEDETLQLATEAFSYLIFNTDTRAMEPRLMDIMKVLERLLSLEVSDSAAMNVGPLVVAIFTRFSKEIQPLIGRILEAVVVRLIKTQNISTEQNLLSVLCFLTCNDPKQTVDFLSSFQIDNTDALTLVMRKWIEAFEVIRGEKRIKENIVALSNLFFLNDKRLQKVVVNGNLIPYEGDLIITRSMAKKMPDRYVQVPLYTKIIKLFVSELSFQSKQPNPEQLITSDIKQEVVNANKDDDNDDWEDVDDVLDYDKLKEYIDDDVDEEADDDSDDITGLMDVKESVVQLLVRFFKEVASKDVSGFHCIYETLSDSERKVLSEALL


Columns and labels:
Conditions in all cases: both partners purified
[1] = biological target: T1, Kap114p wild type; assay: ITC; MicroCal iTC200, 25 °C, 20 mM HEPES pH 7.4, 150 mM NaCl; high concentration: 50 µM wild type or mutant Kap114p in the sample cell, 500 µM wild type or mutant yTBPC in the syringe; triplicate
[2] = biological target: T2, Kap114p (Q597A); assay: as above
[3] = biological target: T2, Kap114p (Q597A); assay: ITC; MicroCal iTC200, 25 °C, 20 mM HEPES pH 7.4, 150 mM NaCl; low concentration: 25 µM wild type or mutant Kap114p in the sample cell, 250 µM wild type or mutant yTBPC in the syringe; triplicate
[4] = biological target: T3, Kap95p; assay: ITC; Kap95p with wild type or R141A yTBP^C; which protein was in the cell is not told for Kap95p; n = 3
[5] = biological target: T4, Kap114p (wild type); assay: ITC; MicroCal iTC200, 25 °C, 20 mM HEPES pH 7.4, 150 mM NaCl; 25 or 50 μM wild type or mutant Kap114p in the cell, 250 or 500 μM wild-type or mutant yTBP^C in the syringe; triplicate

Binder	Kd [1]	Kd [2]	Kd [3]	Kd [4]	fold reduction of the binding affinity against wild type yTBP^C [5]
yTBP^C (R141A) (domain or fragment, S. cerevisiae, UniProt P13393 61-240, looked up, also called yTBP(R141A); His-yTBP (61-240) (R141A); source: E. coli Rosetta, purified (Ni-NTA, HiTrap SP, Superdex 75); not shown: His6, N-terminal, cleaved) SGIVPTLQNIVATVTLGCRLDLKTVALHARNAEYNPKRFAAVIMRIREPKTTALIFASGKMVVTGAKSEDDSKLASRKYAAIIQKIGFAAKFTDFKIQNIVGSCDVKFPIRLEGLAFSHGTFSSYEPELFPGLIYRMVKPKIVLLIFVSGKIVLTGAKQREEIYQAFEAIYPVLSEFRKM	0.255 µM	0.316 µM	0.165 µM	–	–
yTBP^C (R141A) (domain or fragment, S. cerevisiae, UniProt P13393 61-240, looked up, 61-240, point mutant R141A; also called yTBP(R141A); source: E. coli Rosetta, purified (Ni-NTA, HiTrap SP, Superdex 75); not shown: His6, N-terminal, cleaved) SGIVPTLQNIVATVTLGCRLDLKTVALHARNAEYNPKRFAAVIMRIREPKTTALIFASGKMVVTGAKSEDDSKLASRKYAAIIQKIGFAAKFTDFKIQNIVGSCDVKFPIRLEGLAFSHGTFSSYEPELFPGLIYRMVKPKIVLLIFVSGKIVLTGAKQREEIYQAFEAIYPVLSEFRKM	–	–	–	~9.7 µM	> 200 fold
